Experimental findings from PMC9482650, “Quantitative fragmentomics allow affinity mapping of interactomes” (Nature Communications, 2022) are described below.

Broadly, the pKd is the negative decadic logarithm of the Kd, by convention in mol/L.

What all share (experiment): holdup assay
Parameters in all cases: key: below the threshold = too weak to quantify, mostly under pKd 3.1 to 4
Conditions in all cases: plain residues with an end cap or a label only (N-terminal biotin on a linker: ttds)

For assay [1], the target named is IL16_1, Q14005.
Chain of IL16_1, Q14005 (Q14005 210-306): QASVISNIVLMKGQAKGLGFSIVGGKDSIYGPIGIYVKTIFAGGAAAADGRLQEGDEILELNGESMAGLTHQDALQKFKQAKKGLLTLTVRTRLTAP
Assay [2] deals with GRIP2_4, Q9C0E4.
Chain of GRIP2_4, Q9C0E4 (Q9C0E4 446-548): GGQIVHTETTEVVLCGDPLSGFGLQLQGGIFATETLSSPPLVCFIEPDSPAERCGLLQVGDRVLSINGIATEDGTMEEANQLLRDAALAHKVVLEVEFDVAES
Assay [3] addresses GRIP2_7, Q9C0E4.
Assay [4] has as its target T1, PCLO, Q9Y6V0.
T1 sequence (Q9Y6V0 4491-4600, limits assumed, looked up): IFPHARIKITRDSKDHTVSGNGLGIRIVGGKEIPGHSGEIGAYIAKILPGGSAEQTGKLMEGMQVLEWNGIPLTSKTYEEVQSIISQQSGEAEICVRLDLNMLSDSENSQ

The target of assay [5] is T2, PTPN13_1, Q12923.
T2 sequence (Q12923 1088-1188, limits assumed, looked up): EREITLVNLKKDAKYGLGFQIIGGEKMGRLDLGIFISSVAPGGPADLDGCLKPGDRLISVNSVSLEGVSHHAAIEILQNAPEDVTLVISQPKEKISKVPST

Assay [6] deals with T3, APBA3_1, O96018.
T3 sequence (O96018 389-490, limits assumed, looked up): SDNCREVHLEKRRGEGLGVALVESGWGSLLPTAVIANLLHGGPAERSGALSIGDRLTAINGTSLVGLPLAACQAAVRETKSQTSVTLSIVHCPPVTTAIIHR

The target of assay [7] is LNX1_1, Q8TBB1.
Chain of LNX1_1, Q8TBB1 (Q8TBB1 261-371): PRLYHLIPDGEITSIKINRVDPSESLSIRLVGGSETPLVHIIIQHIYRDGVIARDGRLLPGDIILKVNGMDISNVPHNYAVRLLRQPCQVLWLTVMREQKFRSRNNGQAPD
Assay [8] deals with T4, SNTG1, Q9NSN8.
T4 sequence (Q9NSN8 52-150, limits assumed, looked up): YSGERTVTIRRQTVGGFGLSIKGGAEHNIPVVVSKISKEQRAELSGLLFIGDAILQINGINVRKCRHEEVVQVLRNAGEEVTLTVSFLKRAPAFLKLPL

The target in assay [9] is T5, TJP3_3, O95049.
T5 sequence (O95049 375-456, limits assumed, looked up): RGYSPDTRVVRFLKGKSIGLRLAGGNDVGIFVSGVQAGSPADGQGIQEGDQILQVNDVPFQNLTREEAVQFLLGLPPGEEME

Assay [10] deals with T6, SYNJ2BP, P57105.
T6 sequence (P57105 8-110, limits assumed, looked up): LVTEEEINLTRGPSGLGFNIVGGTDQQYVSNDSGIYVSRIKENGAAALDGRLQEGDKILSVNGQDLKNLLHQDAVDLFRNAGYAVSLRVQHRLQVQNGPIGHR

In assay [11] the target is T7, GRIP1_3, Q9Y3R0.
T7 sequence (Q9Y3R0 247-346, limits assumed, looked up): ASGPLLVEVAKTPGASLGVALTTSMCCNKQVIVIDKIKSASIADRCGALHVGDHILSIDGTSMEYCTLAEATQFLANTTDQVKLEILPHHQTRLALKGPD

Assay [12] deals with HTRA1, Q92743.
Chain of HTRA1, Q92743 (Q92743 360-477): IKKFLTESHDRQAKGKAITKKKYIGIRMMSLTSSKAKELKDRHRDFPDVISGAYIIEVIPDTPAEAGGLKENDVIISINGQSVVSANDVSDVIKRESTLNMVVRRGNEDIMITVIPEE
The target in assay [13] is PARD3_3, Q8TEW0.
Chain of PARD3_3, Q8TEW0 (Q8TEW0 582-685): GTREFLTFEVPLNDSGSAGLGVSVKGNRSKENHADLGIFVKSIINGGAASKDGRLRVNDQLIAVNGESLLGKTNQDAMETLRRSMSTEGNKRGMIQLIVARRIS
Assay [14] concerns the target T8, LNX2_3, Q8N448.
T8 sequence (Q8N448 463-564, limits assumed, looked up): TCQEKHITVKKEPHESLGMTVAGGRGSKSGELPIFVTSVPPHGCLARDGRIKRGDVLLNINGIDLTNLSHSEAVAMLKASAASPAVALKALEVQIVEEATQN

Assay [15] has as its target FRMPD3, Q5JV73.
Assay [16] has as its target T9, ARHGAP21, Q5T5U3.
T9 sequence (Q5T5U3 45-169, limits assumed, looked up): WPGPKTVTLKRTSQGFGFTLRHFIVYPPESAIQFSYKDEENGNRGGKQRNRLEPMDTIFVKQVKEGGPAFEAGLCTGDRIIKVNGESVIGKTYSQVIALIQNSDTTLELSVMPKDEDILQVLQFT

Assay [17] concerns the target DLG1_1, Q12959.
The target of assay [18] is LNX1_2, Q8TBB1.
Chain of LNX1_2, Q8TBB1 (Q8TBB1 371-470): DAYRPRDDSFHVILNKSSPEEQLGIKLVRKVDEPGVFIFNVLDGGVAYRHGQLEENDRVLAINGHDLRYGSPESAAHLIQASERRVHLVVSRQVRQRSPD
The target in assay [19] is T10, LIN7C, Q9NUP9.
T10 sequence (Q9NUP9 88-185, limits assumed, looked up): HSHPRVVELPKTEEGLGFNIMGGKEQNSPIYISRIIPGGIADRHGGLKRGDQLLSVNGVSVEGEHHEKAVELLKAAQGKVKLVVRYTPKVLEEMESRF

The target of assay [20] is T11, APBA2_2, Q99767.
T11 sequence (Q99767 654-744, limits assumed, looked up): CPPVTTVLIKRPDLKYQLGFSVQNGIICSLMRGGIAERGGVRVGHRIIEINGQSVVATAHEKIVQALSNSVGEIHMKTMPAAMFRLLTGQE

The target in assay [21] is T12, LNX2_2, Q8N448.
T12 sequence (Q8N448 334-432, limits assumed, looked up): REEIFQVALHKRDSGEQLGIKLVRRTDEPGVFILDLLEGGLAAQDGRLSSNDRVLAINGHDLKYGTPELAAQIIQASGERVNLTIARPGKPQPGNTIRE

The target of assay [22] is T13, MPDZ_12, O75970.
T13 sequence (O75970 1857-1958, limits assumed, looked up): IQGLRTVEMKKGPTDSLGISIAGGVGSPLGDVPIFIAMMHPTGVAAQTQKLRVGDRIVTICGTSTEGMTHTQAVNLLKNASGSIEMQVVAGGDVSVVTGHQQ

Assay [23] concerns the target PTPN3, P26045.
Assay [24] has as its target GRID2IP_1, A4D2P6.

Chain of GRID2IP_1, A4D2P6 (A4D2P6 1-87): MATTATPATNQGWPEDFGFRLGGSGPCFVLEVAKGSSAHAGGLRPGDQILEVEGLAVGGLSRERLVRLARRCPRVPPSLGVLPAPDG
Chain of PTPN3, P26045 (P26045 505-587): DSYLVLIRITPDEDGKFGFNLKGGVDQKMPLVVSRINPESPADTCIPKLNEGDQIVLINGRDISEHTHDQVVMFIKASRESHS
Chain of GRIP2_7, Q9C0E4 (Q9C0E4 934-1023): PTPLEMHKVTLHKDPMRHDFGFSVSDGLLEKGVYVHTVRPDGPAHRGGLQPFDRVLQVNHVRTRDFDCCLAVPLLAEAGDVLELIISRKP
Chain of FRMPD3, Q5JV73 (Q5JV73 12-100): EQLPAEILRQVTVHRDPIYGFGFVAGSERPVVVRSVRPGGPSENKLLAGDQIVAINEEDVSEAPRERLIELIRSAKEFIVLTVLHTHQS

Take GRLLGLETNV [ARHGEF26, Q96DR7]: the pKd in assay [1] is 3.78; in assay [2] it was “below the threshold”; in assay [3], “below the threshold”; in [4], “below the threshold”; in assay [5], “below the threshold”; in assay [6], “below the threshold”. Further, the pKd in assay [7] is 3.81; in assay [8], 4.95; in assay [9], “below the threshold”; in assay [10], 4.86; in [11] it was “below the threshold”; in assay [12], “below the threshold”. Besides, the pKd entry is “below the threshold” in assay [13]; “below the threshold” in assay [14]; “below the threshold” in assay [15]; “below the threshold” in [16]; 4.76 in assay [17]; “below the threshold” in assay [18]. Moreover, the pKd was 3.72 in assay [19]; “below the threshold” in assay [20]; 4.13 in assay [21]; “below the threshold” in assay [22]; 4.69 in assay [23]; “below the threshold” in [24].
